From article PMC9946822

What follows are sequences tested against MtAHL1 (Medicago truncatula) (UniProt G7JGG2) (assay: EMSA). Settings: EMSA as in Chen (ref. 37), 10 ng probe and 200 ng protein (titration 0-300 ng), SYBR Gold stain; binding buffer, pH and temperature not stated; protein eluted ….
MtAHL1 (Medicago truncatula), sequence (G7JGG2 entry or part of it): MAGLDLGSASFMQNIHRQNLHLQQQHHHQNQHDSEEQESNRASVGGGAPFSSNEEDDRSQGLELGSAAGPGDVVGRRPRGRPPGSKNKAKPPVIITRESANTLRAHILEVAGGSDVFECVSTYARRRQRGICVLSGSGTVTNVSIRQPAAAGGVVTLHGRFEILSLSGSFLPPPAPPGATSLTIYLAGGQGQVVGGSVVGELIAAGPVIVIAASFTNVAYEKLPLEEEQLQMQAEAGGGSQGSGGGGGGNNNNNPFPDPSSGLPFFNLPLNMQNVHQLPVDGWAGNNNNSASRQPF

Sequence	binding
CCCATTGTTTTTCCCCTTTGCGTGAAATAAGTGTAAAATTATTTTATCACTTTATATAGTAAAAAATCAAATGATATGTTTACATCAACAAAACAGTTTTTAATAATTATGTTGTTGTAATTAATAC (double strand) [probe D]	binds more weakly
CTTTCTTTTATACAAATCATAAAATTATTACTTATAAATAGAGCTCATTATTGTTTAACAACCTTTCATTATTATTTTTTATTTCTTAGCCAGCCTTTCATAATAGAG (double strand) [probe B]	binds more weakly
GAAAGTAATAATTTTGAGACATCTATTCTATGAGCCAAAGAGACAACTACGATACATCAACGTATTAAAGAGACATTTAATAATTATTTTAATTTTCAAAAAGTATTAATTAC (double strand) [probe C]	binds
GACAACTACGATACATCAACGTATTAAAGAGACATTTAATAATTATTTTAATTTTCAAAAAGTATTAATTACAACAACATAATTATTAAAAACTGTTTTGTTGATGTAAACATATC (double strand) [probe G]	binds
GAGATAGGAAAACCAATATTATATTATGTTGATATGAGTGGGTGTGGAATCACACAACGTGAATAAGGTCTCTTGTTTGAGTCTTGTGGTTAAATAAAACGTG (double strand) [probe A]	binds more weakly
GTTAAACAATAATGAGCTCTATTTATAAGTAATAATTTTATGATTTGTATAAAAGAAAGTAATAATTTTGAGACATCTATTCTATGAGCCAAAGAGACAAC (double strand) [probe F]	binds more weakly
GTTTAACAACCTTTCATTATTATTTTTTATTTCTTAGCCAGCCTTTCATAATAGAGATAGGAAAACCAATATTATATTATGTTGATATGAGTGGGTGTGGAATCA (double strand) [probe E]	binds more weakly
